B1: unnamed (parent)
chain 1: DHQIRELTAKMETQSMYVSELKRTIRTLEDKVAEIEAQQCNGIYIWKIGNFGMHLKCQEEEKPVVIHSPGFYTGKPGYKLCMRLHLQLPTAQRCANYISLFVHTMQGEYDSHLPWPFQGTIRLTILDQSEAPVRQNHEEIMDAKPELLAFQRPTIPRNPKGFGYVTFMHLEALRQRTFIKDDTLLVRCEVSTRFDMGSLRREGFQPRSTDAGV
chain 2: GGGPYAQGEDARMLSLVSKTEIEEDSFRQMPTEDEYMDRPSQ
B2: unnamed (parent)
chain 1: MSLLNCENSCGSSQSESDCCVAMASSCSAVTKDDSVGGTASTGNLSSSFMEEIQGYDVEFDPPLESKYECPICLMALREAVQTPCGHRFCKACIIKSIRDAGHKCPVDNEILLENQLFPDNFAKREILSLMVKCPNEGCLHKMELRHLEDHQAHCEFALMDCPQCQRPFQKFHINIHILKDCPRRQVSCDNCAASMAFEDKEIHDQNCPLANVICEYCNTILIREQMPNHYDLDCPTAPIPCTFSTFGCHEKMQRNHLARHLQENTQSHMRMLAQAVHSLSVIPDSGYISEVRNFQETIHQLEGRLVRQDHQIRELTAKMETQSMYVSELKRTIRTLEDKVAEIEAQQCNGIYIWKIGNFGMHLKCQEEEKPVVIHSPGFYTGKPGYKLCMRLHLQLPTAQRCANYISLFVHTMQGEYDSHLPWPFQGTIRLTILDQSEAPVRQNHEEIMDAKPELLAFQRPTIPRNPKGFGYVTFMHLEALRQRTFIKDDTLLVRCEVSTRFDMGSLRREGFQPRSTDAGV
chain 2: MEHDLERGPPGPRRPPRGPPLSSSLGLALLLLLLALLFWLYIVMSDWTGGALLVLYSFALMLIIIILIIFIFRRDLLCPLGALCILLLMITLLLIALWNLHGQALFLGIVLFIFGCLLVLGIWIYLLEMLWRLGATIWQLLAFFLAFFLDLILLIIALYLQQNWWTLLVDLLWLLLFLAILIWMYYHGQRHSDEHHHDDSLPHPQQATDDSGHESDSNSNEGRHHLLVSGAGDGPPLCSQNLGAPGGGPDNGPQDPDNTDDNGPQDPDNTDDNGPHDPLPQDPDNTDDNGPQDPDNTDDNGPHDPLPHSPSDSAGNDGGPPQLTEEVENKGGDQGPPLMTDGGGGHSHDSGHGGGDPHLPTLLLGSSGSGGDDDDPHGPVQLSYYD

Variants of: B1
Test: AlphaScreen
Details: with partner chain of the complex shown; parent: 100; read off a plot
For chain 1 DHQIRELTAKMETQSMYVSELKRTIRTLEDKVAEIEAQQCNGIYIWKIGNFGMHLKCQEEEKPVVIHSPGFYTGKPGYKLCMRLHLQLPTAQRCANYISLFVHTMQGEYDSHLPWPFQGTIRLTILDQSEAPVRQNHEEIMDAKPELLAFQRPTIPRNPKGAGYVTFMHLEALRQRTFIKDDTLLVRCEVSTRFDMGSLRREGFQPRSTDAGV [chain 1 F162A], the percent of parent was 1%.

Variants of: B2
Test: co-immunoprecipitation, quantified immunoblot
Details: with partner chain of the complex shown; HEK293 cells; parent: 1.3e+07; read off a plot
With chain 1 MSLLNCENSCGSSQSESDCCVAMASSCSAVTKDDSVGGTASTGNLSSSFMEEIQGYDVEFDPPLESKYECPICLMALREAVQTPCGHRFCKACIIKSIRDAGHKCPVDNEILLENQLFPDNFAKREILSLMVKCPNEGCLHKMELRHLEDHQAHCEFALMDCPQCQRPFQKFHINIHILKDCPRRQVSCDNCAASMAFEDKEIHDQNCPLANVICEYCNTILIREQMPNHYDLDCPTAPIPCTFSTFGCHEKMQRNHLARHLQENTQSHMRMLAQAVHSLSVIPDSGYISEVRNFQETIHQLEGRLVRQDHQIRELTAKMETQSMYVSELKRTIRTLEDKVAEIEAQQCNGIYIWKIGNFGMHLKCQEEEKPVVIHSPGFYTGKPGYKLCMRLHLQLPTAQRCANYISLFVHTMQGEYDSHLPWPFQGTIRLTILDQSEAPVRQNHEEIMDAKPELLAFQRPTIPRNPKGAGYVTFMHLEALRQRTFIKDDTLLVRCEVSTRFDMGSLRREGFQPRSTDAGV [chain 1 F471A] the response (relative intensity) was 6e+06.
With chain 1 MSLLNCENSCGSSQSESDCCVAMASSCSAVTKDDSVGGTASTGNLSSSFMEEIQGYDVEFDPPLESKYECPICLMALREAVQTPCGHRFCKACIIKSIRDAGHKCPVDNEILLENQLFPDNFAKREILSLMVKCPNEGCLHKMELRHLEDHQAHCEFALMDCPQCQRPFQKFHINIHILKDCPRRQVSCDNCAASMAFEDKEIHDQNCPLANVICEYCNTILIREQMPNHYDLDCPTAPIPCTFSTFGCHEKMQRNHLARHLQENTQSHMRMLAQAVHSLSVIPDSGYISEVRNFQETIHQLEGRLVRQDHQIRELTAKMETQSMYVSELKRTIRTLEDKVAEIEAQQCNGIYIWKIGNFGMHLKCQEEEKPVVIHSPGFYTGKPGYKLCMRLHLQLPTAQRCANYISLFVHTMQGEYDSHLPWPFQGTIRLTILDQSEAPVRQNHEEIMDAKPELLAFQRPTIPRNPAGFGYVTFMHLEALRQRTFIKDDTLLVRCEVSTRFDMGSLRREGFQPRSTDAGV [chain 1 K469A] the response (relative intensity) was 1.8e+07.
chain 1 MSLLNCENSCGSSQSESDCCVAMASSCSAVTKDDSVGGTASTGNLSSSFMEEIQGYDVEFDPPLESKYECPICLMALREAVQTPCGHRFCKACIIKSIRDAGHKCPVDNEILLENQLFPDNFAKREILSLMVKCPNEGCLHKMELRHLEDHQAHCEFALMDCPQCQRPFQKFHINIHILKDCPRRQVSCDNCAASMAFEDKEIHDQNCPLANVICEYCNTILIREQMPNHYDLDCPTAPIPCTFSTFGCHEKMQRNHLARHLQENTQSHMRMLAQAVHSLSVIPDSGYISEVRNFQETIHQLEGRLVRQDHQIRELTAKMETQSMYVSELKRTIRTLEDKVAEIEAQQCNGIYIWKIGNFGMHLKCQEEEKPVVIHSPGFYTGKPGYKLCMRLHLQLPTAQRCANYISLFVHTMQGEYDSHLPWPFQGTIRLTILDQSEAPVRQNHEEIMDAKPELLAFQRPTIPRNPKGFGAVTFMHLEALRQRTFIKDDTLLVRCEVSTRFDMGSLRREGFQPRSTDAGV [chain 1 Y473A] was tested, and the response (relative intensity) was 5.5e+06.
chain 1 MSLLNCENSCGSSQSESDCCVAMASSCSAVTKDDSVGGTASTGNLSSSFMEEIQGYDVEFDPPLESKYECPICLMALREAVQTPCGHRFCKACIIKSIRDAGHKCPVDNEILLENQLFPDNFAKREILSLMVKCPNEGCLHKMELRHLEDHQAHCEFALMDCPQCQRPFQKFHINIHILKDCPRRQVSCDNCAASMAFEDKEIHDQNCPLANVICEYCNTILIREQMPNHYDLDCPTAPIPCTFSTFGCHEKMQRNHLARHLQENTQSHMRMLAQAVHSLSVIPDSGYISEVRNFQETIHQLEGRLVRQDHQIRELTAKMETQSMYVSELKRTIRTLEDKVAEIEAQQCNGIYIWKIGNFGMHLKCQEEEKPVVIHSPGFYTGKPGYKLCMALHLQLPTAQRCANYISLFVHTMQGEYDSHLPWPFQGTIRLTILDQSEAPVRQNHEEIMDAKPELLAFQRPTIPRNPKGFGYVTFMHLEALRQRTFIKDDTLLVRCEVSTRFDMGSLRREGFQPRSTDAGV [chain 1 R392A] was tested, and the response (relative intensity) was 2.5e+06.

From paper PMC10776578, “Epstein-Barr virus-driven B cell lymphoma mediated by a direct LMP1-TRAF6 complex” (Nature Communications, 2024)
